In paper PMC5063953 (Biochemical Pharmacology, 2016):
Where two headings read alike, the source gives them in different places. No end group written: not given here.

Tests used:
hCLR-RAMP2 = conditions: ref [60], cited from earlier work
hCLR-RAMP3 = conditions: ref [60], cited from earlier work
hCLR-RAMP1 = conditions: cited from earlier work
hCRF-1R = conditions: ref [44], cited from earlier work
[1] = target: N-terminally double c-myc labelled wildtype human GLP-1R (human) (UniProt P43220)
[2] = target: human GLP-1R E7.63^408A (human) (UniProt P43220)
[3] = target: human GLP-1R K4.64^288A (human) (UniProt P43220)
[4] = target: human GLP-1R K6.35^346A (human) (UniProt P43220)
[5] = target: human GLP-1R K6.40^351A (human) (UniProt P43220)
[6] = target: human GLP-1R N2.52^182A (human) (UniProt P43220)
[7] = target: human GLP-1R Q7.65^410A (human) (UniProt P43220)
[8] = target: human GLP-1R R2.46^176A (human) (UniProt P43220)
[9] = target: human GLP-1R R3.30^227A (human) (UniProt P43220)
[10] = target: human GLP-1R R5.40^310A (human) (UniProt P43220)
[11] = target: human GLP-1R R5.56^326A (human) (UniProt P43220)
[12] = target: human GLP-1R R6.37^348A (human) (UniProt P43220)
[13] = target: human GLP-1R Y3.53^250A (human) (UniProt P43220)
[14] = target: N-terminally double c-myc labelled wildtype human GLP-1R (human) (UniProt P43220); test: radioligand binding
[15] = target: human GLP-1R E7.63^408A (human) (UniProt P43220); test: radioligand binding
[16] = target: human GLP-1R K4.64^288A (human) (UniProt P43220); test: radioligand binding
[17] = target: human GLP-1R K6.35^346A (human) (UniProt P43220); test: radioligand binding
[18] = target: human GLP-1R K6.40^351A (human) (UniProt P43220); test: radioligand binding
[19] = target: human GLP-1R Q7.65^410A (human) (UniProt P43220); test: radioligand binding
[20] = target: human GLP-1R R2.46^176A (human) (UniProt P43220); test: radioligand binding
[21] = target: human GLP-1R R3.30^227A (human) (UniProt P43220); test: radioligand binding
[22] = target: human GLP-1R R5.40^310A (human) (UniProt P43220); test: radioligand binding
[23] = target: human GLP-1R R5.56^326A (human) (UniProt P43220); test: radioligand binding
[24] = target: human GLP-1R R6.37^348A (human) (UniProt P43220); test: radioligand binding
[25] = target: human GLP-1R Y3.53^250A (human) (UniProt P43220); test: radioligand binding
rGCGR = conditions: ref [52], cited from earlier work
hGCGR = conditions: ref [15], cited from earlier work
rSecR = conditions: ref [14], cited from earlier work
hSecR = conditions: cited from earlier work
SecR = conditions: R2.46A; ref [17]; cited from earlier work
hVPAC1R = conditions: cited from earlier work
hVPAC2R = conditions: ref [35], cited from earlier work
oPTH-1R = conditions: ref [57], cited from earlier work

Molecule: adrenomedullin: agonist at CLR-RAMP2 or CLR-RAMP3 complexes (YRQSMNNFQGLRSFGCRFGTCTVQKLAHQIYQFTDKDKDNVAPRSKISPQGY; ends and bridges not checked; cysteine pairing not given here; UniProt P35318 95-146, looked up)
- Effect compared with WT: cAMP production (hCLR-RAMP2; K3.30A): Reduced adrenomedullin cAMP production
- Effect compared with WT: cAMP production (hCLR-RAMP2; R4.64A): Reduced adrenomedullin mediated cAMP production
- function upon mutation of R4.64, in words (hCLR-RAMP2; R4.64 mutated, [63]): altered adrenomedullin function
- Effect compared with WT: cAMP production (hCLR-RAMP3; K3.30A): Reduced adrenomedullin cAMP production
- Effect compared with WT: cAMP production (hCLR-RAMP3; R4.64A): Reduced adrenomedullin mediated cAMP production
- function upon mutation of R4.64, in words (hCLR-RAMP3; R4.64 mutated, [63]): altered adrenomedullin function

Molecule: calcitonin gene related peptide [CGRP]
- Effect compared with WT: cAMP potency (hCLR-RAMP1; E7.63A, ref [59]): Reduced CGRP-mediated cAMP potency
- Effect compared with WT: cAMP pEC50 (hCLR-RAMP1; H5.40A, ref [59]): Reduced CGRP-mediated cAMP pEC50
- Effect compared with WT: cAMP production (hCLR-RAMP1; K3.30A, ref [59]): No effect on CGRP mediated cAMP production
- Effect compared with WT: cAMP production (hCLR-RAMP1; K6.37A, ref [10]): No effect on CGRP mediated cAMP production
- Effect compared with WT: affinity or cAMP production (hCLR-RAMP1; N2.52A, ref [59]): No effect on CGRP affinity or cAMP production
- Effect compared with WT: cAMP production (hCLR-RAMP1; N5.56A, ref [59]): No effect on CGRP cAMP mediated production
- Effect compared with WT: cAMP potency (hCLR-RAMP1; R2.46A, ref [59]): Reduced CGRP mediated cAMP potency.
- Effect compared with WT: cAMP pEC50 (hCLR-RAMP1; R4.64A, ref [59]): Reduced CGRP mediated cAMP pEC50.
- function upon mutation of R4.64, in words (hCLR-RAMP1; R4.64 mutated, ref [60], [63]): not CGRP function
- reduction in affinity compared with WT (hCLR-RAMP1; R6.40A, ref [10]): 5 fold
- reduction in cAMP production compared with WT (hCLR-RAMP1; R6.40A, ref [10]): 30 fold

Molecule: corticotropin-releasing factor [CRF]
- Effect compared with WT: cAMP potency (Gs) (hCRF-1R; K6.37A): Increased CRF mediated cAMP potency (Gs)
- Effect compared with WT: pERK1/2 (Gi) (hCRF-1R; K6.37A): reduced pERK1/2 (Gi)

Molecule: exendin-4 (from UniProt P26349 48-87) (peptide)
- −Log KA (functional affinity) from operational model fit of cAMP accumulation curves [1]: 9.24 −Log KA
- −Log KA (functional affinity) from operational model fit of iCa2+ mobilisation curves [1]: 7.46 −Log KA
- −Log KA (functional affinity) from operational model fit of pERK1/2 curves [1]: 8.31 −Log KA
- −Log KA (functional affinity) from operational model fit of cAMP accumulation curves [2]: 8.89 −Log KA
- −Log KA (functional affinity) from operational model fit of iCa2+ mobilisation curves [2]: 7.01 −Log KA
- −Log KA (functional affinity) from operational model fit of pERK1/2 curves [2]: 8.35 −Log KA
- −Log KA (functional affinity) from operational model fit of cAMP accumulation curves [3]: 8.16 −Log KA
- −Log KA (functional affinity) from operational model fit of pERK1/2 curves [3]: 7.01 −Log KA
- −Log KA (functional affinity) from operational model fit of cAMP accumulation curves [4]: 9.91 −Log KA
- −Log KA (functional affinity) from operational model fit of iCa2+ mobilisation curves [4]: 7.78 −Log KA
- −Log KA (functional affinity) from operational model fit of pERK1/2 curves [4]: 8.21 −Log KA
- −Log KA (functional affinity) from operational model fit of cAMP accumulation curves [5]: 9.31 −Log KA
- −Log KA (functional affinity) from operational model fit of iCa2+ mobilisation curves [5]: 7.15 −Log KA
- −Log KA (functional affinity) from operational model fit of pERK1/2 curves [5]: 8.12 −Log KA
- −Log KA (functional affinity) from operational model fit of cAMP accumulation curves [6]: 9.16 −Log KA
- −Log KA (functional affinity) from operational model fit of pERK1/2 curves [6]: 8.21 −Log KA
- −Log KA (functional affinity) from operational model fit of cAMP accumulation curves [7]: 9.41 −Log KA
- −Log KA (functional affinity) from operational model fit of iCa2+ mobilisation curves [7]: 7.1 −Log KA
- −Log KA (functional affinity) from operational model fit of pERK1/2 curves [7]: 8.35 −Log KA
- −Log KA (functional affinity) from operational model fit of cAMP accumulation curves [8]: 8.95 −Log KA
- −Log KA (functional affinity) from operational model fit of iCa2+ mobilisation curves [8]: 7.39 −Log KA
- −Log KA (functional affinity) from operational model fit of pERK1/2 curves [8]: 8.12 −Log KA
- −Log KA (functional affinity) from operational model fit of cAMP accumulation curves [9]: 8.13 −Log KA
- −Log KA (functional affinity) from operational model fit of iCa2+ mobilisation curves [9]: 6.82 −Log KA
- −Log KA (functional affinity) from operational model fit of pERK1/2 curves [9]: 7.31 −Log KA
- −Log KA (functional affinity) from operational model fit of cAMP accumulation curves [10]: 7.79 −Log KA
- −Log KA (functional affinity) from operational model fit of pERK1/2 curves [10]: 7.53 −Log KA
- −Log KA (functional affinity) from operational model fit of cAMP accumulation curves [11]: 9.22 −Log KA
- −Log KA (functional affinity) from operational model fit of iCa2+ mobilisation curves [11]: 7.1 −Log KA
- −Log KA (functional affinity) from operational model fit of pERK1/2 curves [11]: 8.33 −Log KA
- −Log KA (functional affinity) from operational model fit of cAMP accumulation curves [12]: 9.37 −Log KA
- −Log KA (functional affinity) from operational model fit of iCa2+ mobilisation curves [12]: 7.08 −Log KA
- −Log KA (functional affinity) from operational model fit of pERK1/2 curves [12]: 8.35 −Log KA
- −Log KA (functional affinity) from operational model fit of cAMP accumulation curves [13]: 9.37 −Log KA
- −Log KA (functional affinity) from operational model fit of pERK1/2 curves [13]: 8.11 −Log KA
- pKi [14]: 8.87 pKi
- pKi [15]: 8.29 pKi
- pKi [16]: 7.39 pKi
- pKi [17]: 9.34 pKi
- pKi [18]: 8.92 pKi
- pKi [19]: 9.08 pKi
- pKi [20]: 8.61 pKi
- pKi [21]: 7.6 pKi
- pKi [22]: 7.99 pKi
- pKi [23]: 8.59 pKi
- pKi [24]: 8.8 pKi
- pKi [25]: 8.68 pKi

Molecule: glucagon: peptide agonist of the glucagon receptor
- Effect compared with WT: potency in CRE reporter activity assay (rGCGR; E7.63A): Enhanced basal activity and enhanced potency in glucagon mediated CRE reporter activity assay
- Effect compared with WT: potency in CRE reporter activity assay (rGCGR; N7.61A): Enhanced potency in glucagon mediated CRE reporter activity assay
- Effect compared with WT: CRE reporter activity (rGCGR; R6.37A): Enhanced glucagon mediated CRE reporter activity (potency and Emax)
- Effect compared with WT: affinity (hGCGR; K4.64L): Reduced glucagon affinity
- Effect compared with WT: expression and affinity (hGCGR; R3.30A): Reduced expression and glucagon affinity
- Effect compared with WT: expression and affinity (hGCGR; R5.40A): Reduced expression and glucagon affinity

Molecule: secretin: agonist of the secretin receptor
- Effect compared with WT: cAMP production (rSecR; R3.30A): Reduced secretin-mediated cAMP production
- Effect compared with WT: cAMP potency (rSecR; R4.64A): Decreased secretin mediated cAMP potency.
- Effect compared with WT: affinity or receptor expression (hSecR; R6.37A/K6.40A, ref [17]): no effect on affinity or receptor expression
- Effect compared with WT: cAMP and calcium (hSecR; R6.37A/K6.40A, ref [17]): Reduced secretin mediated cAMP and calcium
- Effect compared with WT: cAMP production (hSecR; R6.37A, ref [8]): No effect on secretin mediated cAMP production
- Effect compared with WT: cAMP potency (SecR): not cAMP potency
- Effect compared with WT: calcium potency (SecR): Decreased secretin mediated calcium potency

Molecule: urocortin: agonist at hCRF-1R (DNPSLSIDLTFHLLRTLLELARTQSQRERAEQNRIIFDSV; ends and bridges not checked; UniProt P55089 83-122, looked up)
- Effect compared with WT: IP3 (Gq) (hCRF-1R; K6.40A): reduced IP3 (Gq)
- Effect compared with WT: cAMP (Gs) (hCRF-1R; K6.40A): Increased urocortin mediated cAMP (Gs)

Molecule: vasoactive intestinal polypeptide [VIP]
- Effect compared with WT: cAMP production (hVPAC1R; E7.63A, ref [13]): Decreased VIP mediated cAMP production
- Effect compared with WT: cAMP production (hVPAC1R; R6.37A, ref [13]): No effect on VIP mediated cAMP production
- Effect compared with WT: IP3 production (hVPAC1R; R6.40A, ref [36]): Reduced VIP mediated IP3 production
- Effect compared with WT: cAMP (hVPAC1R; R6.40A, ref [36]): no effect on cAMP
- Effect compared with WT: cAMP production (hVPAC1R; Y3.53A, ref [55]): Reduced VIP mediated cAMP production
- Effect compared with WT: cAMP (hVPAC1R; Y6.35A, ref [13]): No effect on VIP mediated cAMP
- Effect compared with WT: cAMP potency (hVPAC2R; R6.37A): Reduced VIP mediated cAMP potency
- Effect compared with WT: cAMP potency (hVPAC2R; R6.40A): Reduced VIP mediated cAMP potency

B1: parathyroid hormone (peptide, UniProt P01270 32-115, looked up)
Parathyroid hormone: SVSEIQLMHNLGKHLNSMERVEWLRKKLQDVHNFVALGAPLAPRDAGSQRPRKKEDNVLVESHEKSLGEADKADVNVLTKAKSQ
modifications: Parathyroid hormone
- Effect compared with WT: cAMP (oPTH-1R; E7.63 K): No effect on PTH mediated cAMP
- Effect compared with WT: cAMP production (oPTH-1R; H2.52A): No effect on PTH-1 cAMP production.
- Effect compared with WT: cAMP (oPTH-1R; R4.64A): No effect on PTH mediated cAMP
